From the DeepSol protein solubility set come the findings set out here.

The data set in a line: soluble on expression in E. coli; label from the status in PepcDB or PDB records.
As for “SLQKQEKIIEMFNQIAPTYDKANRILSFGADVAWRKKACQRVMSLYLKKDLKIADIACGTGDMIEIWQESALKMEKNILNIKGIDPSSGMLNVAKEKFPNVEFIKAGAQNLPLESQSLDILSISYGIRNVVERQKALSEFARVLQKDGILVVLEFTKREKGGFIAACRDFYLKNILPSIGGIISKNKSAYEYLPNSIEGFLSKKEFILELKNAGFEMLDYKSFSFGVSSMFIAKKL”, the “soluble on expression in E. coli” value is on record as “soluble”.
On to “SLQMKNYQQTLKRMSDRSSGFLGVGVHKQKLGIGAIAIVVTDKDGEIVDCEMMSGVTVFSRFKPLTDFVGMSLNECKVLLQNESVDIALHGALKKIEEQMNRKENVTT”, for which the “soluble on expression in E. coli” value is “soluble”.
“SLRYIRQLCCVSLLCLSGSAVAANVRLQVEGLSGQLEKNVRAQLSTIESDEVTPDRRFRARVDDAIREGLKALGYYQPTIEFDLRPPPKKGRQVLIAKVTPGVPVLIGGTDVVLRGGARTDKDYLKLLDTRPAIGTVLNQGDYENFKKSLTSIALRKGYFDSEFTKAQLGIALGLHKAFWDIDYNSGERYRFGHVTFEGSQIRDEYLQNLVPFKEGDEYESKDLAELNRRLSATGWFNSVVVAPQFDKARETKVLPLTGVVSPRTENTIETGVGYSTDVGPRVKATWKKPWMNSYGHSLTTSTSISAPEQTLDFSYKMPLLKNPLEQYYLVQGGFKRTDLNDTESDSTTLVASRYWDLSSGWQRAINLRWSLDHFTQGEITNTTMLFYPGVMISRTRSRGGLMPTWGDSQRYSIDYSNTAWGSDVDFSVFQAQNVWIRTLYDRHRFVTRGTLGWIETGDFDKVPPDLRFFAGGDRSIRGYKYKSIAPKYANGDLKGASKLITGSLEYQYNVTGKWWGAVFVDSGEAVSDIRRSDFKTGTGVGVRWESPVGPIKLDFAVPVADKDEHGLQFYIGLGPEL”: the “soluble on expression in E. coli” value is listed as “soluble”.
To “SLRYSKLTMLIPCALLLSACTTVTPAYKDNGTRSGPCVEGGPDNVAQQFYDYRILHRSNDITALRPYLSDKLATLLSDASRDNNHRELLTNDPFSSRTTLPDSAHVASASTIPNRDARNIPLRVDLKQGDQGWQDEVLMIQEGQCWVIDDVRYLGGSVHATAGTLRQSIENR” belongs “not soluble”; to “SLSFASSACFNEAGTMFRIEPNLIKAIALVESNLKKDSIGKNRDKKNNIKSFDYGLMQINQMHIPMLKKRGIIKDERDLLDNPCLNIKIGTEILYKHFSRCGMTWQCLGTYNAGFAMDNQKKRLQYAKKIYIVYTRLNELDNRKALA”, “not soluble”; to “SLSMVLLRGRLLSFRRAPLSIDDTQSYLYIEDGGLLLENGRIAAIGEYADIRETAPEDVEEKDHRPHLIVPGLIDMHLHFPQMQVIGSYAANLLEWLNTYTFPEECRFVESAHAQRIATHFYDELLRHGTTTAAAYCSVHKTSADAFFTEAMKRNMLMIGGKVMMDRNAPQGLLDTPETSYDETRQVIADWHGRGRNHVAITPRFAITSTPKQMEAAQALAQEFPDLFIQTHLSENLDEIKYTCELYPEATDYTDIYVRYGLMGNKTLLGHAIHLSDREADVLSETGAVAVHCPTSNLFIGSGLFPMKKLQRREKPVRIAVATDIGGGSSYSMLRTMDEAYKIQQLLGERLNPLESWYLMTRGNAEALSMVDRIGTLEAGTDADITVLNASSTPAMALKMEVVKSLTEELFLMLTMGDDRTVVETYVAGRAMKSVLA”, “not soluble”.
To “SLTTEVVMENVTAFWEEGFGELFEKAKQNNNNRKTSNGDDSLSFSNFSLLGTPVLKDINFKIERGQLLAVAGSTGAGKTSLLMMIMGELEPSEGKIKHSGRISFCSQFSWIMPGTIKENIIFGVSYDEYRYRSVIKACQLEEDISKFAEKDNIVLGEGGITLSGGQRARISLARAVYKDADLYLLDSPFGYLDVLTEKEIFESCVCKLMANKTRILVTSKMEHLKKADKILILHEGSSYFYGTFSELQNLQPDFSSKLMGGGGGSGGGGSGGGGSDDIWPSGGQMTVKDLTAKYTEGGNAILENISFSISPGQRVGLLGRTGSGKSTLLSAFLRLLNTEGEIQIDGVSWDSITLQQWRKAFGVIPQKVFIFSGTFRKNLDPYEQWSDQEIWKVADEVGLRSVIEQFPGKLDFVLVDGGCVLSHGHKQLMCLARSVLSKAKILLLDQPSAHLDPVTYQIIRRTLKQAFADCTVILCEHRIEAMLECQQFLVIEENKVRQYDSIQKLLNERSLFRQAISPSDR” belongs “soluble”; to “SLTTQRLGLIMNGVTGRMGLNQHLIRSIVAIRDQGGVRLKNGDRIMPDPILVGRSAEKVEALAKRFNIARWTTDLDAALADKNDTMFFDAATTQARPGLLTQAINAGKHVYCEKPIATNFEEALEVVKLANSKGVKHGTVQDKLFLPGLKKIAFLRDSGFFGRILSVRGEFGYWVFEGGWQEAQRPSWNYRDEDGGGIILDMVCHWRYVLDNLFGNVQSVVCIGNTDIPERFDEQGKKYKATADDSAYATFQLEGGVIAHINMSWVTRVYRDDLVTFQVDGTHGSAVAGLSDCMIQARQATPRPVWNPDEKRLHDFYGDWQKLPDNVSYDNGFKEQWEMFIRHVYEDAPYKFTLLEGAKGVQLAECALKSWKERRWIDVAPIK”, “soluble”.
For “SLTVFQPLVPPDWKMNLREGSLYAQVAFSAAAGQGFEAGGHGVLKGGSAWMPDNQINGVDFVLPFRFSDGHWQLGIRRPVSLRIGEIVNQVTARNLTADLQGTWPWSEANPLQLSDVSVDLLGGKLTLLQLRMPQRDPALIRLQHISSSELTSAVKVKQFAMSGAVSGALPLWLENNQWIIHDGWLRNDGPMTLRLDKDTADALVADNVSAGAAINWLRYMEISRSWTQINLDNLGVLTLKASINGTSRVEGKSSTVHLNYAHEENIFDLWRSLRFGDNLQAWLEQNATL” the value was “not soluble”.
Regarding “SMFRDQVGVLAGWFKGWNECEQTVALLSLLKRVSQTQARFLQLCLEHSLADCAELHVLEREANSPGIINQWQQESKDKVISLLLTHLPLLKPGNLDAKVEYMKLLPKTLAHSIEHNQHIEESRQLLSYALIHPATSLEDRSALAMWLNHLEDRTSTSFGGQNRGRSDSVDYGQTHYYHQRQNSDDKLNGWQNSRDSGICINASNWQDKSMGCENGHVPLYSSSSVPTTINTIGTSTSTSKFPGIPLT”, the “soluble on expression in E. coli” value is on record as “soluble”.
To SMGLPPGWDEYKTHNGKTYYYNHNTKTSTWTDPRMSS belongs “soluble”; to “SMSQIMYNYPAMLGHAGDMAGYAGTLQSLGAEIAVEQAALQSAWQGDTGITYQAWQAQWNQAMEDLVRAYHAMSSTHEANTMAMMARDTAEAAKWGG”, “soluble”.
For “SMTGPIVYVQNADGIFFKLAEGKGTNDAVIHLANQDQGVRVLGAEEFPVQGEVVKIASLMGFIKLKLNRYAIIANTVEETGRFNGHVFYRVLQHSIVSTKFNSRIDSEEAEYIKLLELHLKNSTFYFSYTYDLTNSLQRNEKVGPAASWKTADERFFWNHYLTEDLRNFAHQDPRIDSFIQPVIYGYAKTVDAVLNATPIVLGLITRRSIFRAGTRYFRRGVDKDGNVGNFNETEQILLAENPESEKIHVFSFLQTRGSVPIYWAEINNLKYKPNLVLGENSLDATKKHFDQQKELYGDNYLVNLVNQKGHELPVKEGYESVVHALNDPKIHYVYFDFHHECRKMQWHRVKLLIDHLEKLGLSNEDFFHKVIDSNGNTVEIVNEQHSVVRTNCMDCLDRTNVVQSVLAQWVLQKEFESADVVATGSTWEDNAPLLTSYQNLWADNADAVSVAYSGTGALKTDFTRTGKRTRLGAFNDFLNSASRYYQNNWTDGPRQDSYDLFLGG” the value was “soluble”; for “SNAIMAKTAKVAVSQIVEHPALDATRQGLLDGLKAKGYEEGKNLEFDYKTAQGNPAIAVQIARQFVGENPDVLVGIATPTAQALVSATKTIPIVFTAVTDPVGAKLVKQLEQPGKNVTGLSDLSPVEQHVELIKEILPNVKSIGVVYNPGEANAVSLMELLKLSAAKHGIKLVEATALKSADVQSATQAIAEKSDVIYALIDNTVASAIEGMIVAANQAKTPVFGAATSYVERGAIASLGFDYYQIGVQTADYVAAILEGKEPGSLDVQVAKGSDLVINKTAAEQLGITIPEAVLARATSTK”, “soluble”; for “SNALQPNMRTRVCTVINNNIAHEWTLARIASELLMSPSLLKKKLREEETSYSQLLTECRMQRALQLIVIHGFSIKRVAVSCGYHSVSYFIYVFRNYYGMTPTEYQERSAQRLSNRDSAAS”, “soluble”.
For “SNAMAALPDKEKLLRNFTRCANWEEKYLYIIELGQRLAELNPQDRNPQNTIHGCQSQVWIVMRRNANGIIELQGDSDAAIVKGLMAVVFILYHQMTAQDIVHFDVRPWFEKMALAQHLTPSRSQGLEAMIRAIRAKAATLS” the value was “soluble”.
